# Experimental data as given in the supplement of paper PMC12458215.
# ± gives the uncertainty stated by the source.
# Test system: HEK293T
# Assay: plasma membrane surface immunostaining intensity (anti-HA, deep receptor scanning) (arbitrary fluorescence units); higher = higher plasma membrane expression
Sequence,plasma membrane surface immunostaining intensity (GPCR class: A),plasma membrane surface immunostaining intensity (GPCR class: A (Olfactory)),other results
MAMTWIVFSLWPLTVFMGHIGGHSLFSCEPITLRMCQDLPYNTTFMPNLLNHYDQQTAALAMEPFHPMVNLDCSRDFRPFLCALYAPICMEYGRVTLPCRRLCQRAYSECSKLMEMFGVPWPEDMECSRFPDCDEPYPRLVDLNLAGEPTEGAPVAVQRDYGFWCPRELKIDPDLGYSFLHVRDCSPPCPNMYFRREELSFARYFIGLISIICLSATLFTFLTFLIDVTRFRYPERPIIFYAVCYMMVSLIFFIGFLLEDRVACNASIPAQYKASTVTQGSHNKACTMLFMILYFFTMAGSVWWVILTITWFLAAVPKWGSEAIEKKALLFHASAWGIPGTLTIILLAMNKIEGDNISGVCFVGLYDVDALRYFVLAPLCLYVVVGVSLLLAGIISLNRVRIEIPLEKENQDKLVKFMIRIGVFSILYLVPLLVVIGCYFYEQAYRGIWETTWIQERCREYHIPCPYQVTQMSRPDLILFLMKYLMALIVGIPSVFWVGSKKTCFEWASFFHGRRKKEIVNESRQVLQEPDFAQSLLRDPNTPIIRKSRGTSTQGTSTHASSTQLAMVDDQRSKAGSIHSKVSSYHGSLHRSRDGRYTPCSYRGMEERLPHGSMSRLTDHSRHSSSHRLNEQSRHSSIRDLSNNPMTHITHGTSMNRVIEEDGTSA [FZD3],–,–,plasma membrane surface immunostaining intensity (GPCR class: F): 177 ± 57
MANFTPVNGSSGNQSVRLVTSSSHNRYETVEMVFIATVTGSLSLVTVVGNILVMLSIKVNRQLQTVNNYFLFSLACADLIIGAFSMNLYTVYIIKGYWPLGAVVCDLWLALDYVVSNASVMNLLIISFDRYFCVTKPLTYPARRTTKMAGLMIAAAWVLSFVLWAPAILFWQFVVGKRTVPDNQCFIQFLSNPAVTFGTAIAAFYLPVVIMTVLYIHISLASRSRVHKHRPEGPKEKKAKTLAFLKSPLMKQSVKKPPPGEAAREELRNGKLEEAPPPALPPPPRPVADKDTSNESSSGSATQNTKERPATELSTTEATTPAMPAPPLQPRALNPASRWSKIQIVTKQTGNECVTAIEIVPATPAGMRPAANVARKFASIARNQVRKKRQMAARERKVTRTIFAILLAFILTWTPYNVMVLVNTFCQSCIPDTVWSIGYWLCYVNSTINPACYALCNATFKKTFRHLLLCQYRNIGTAR [CHRM4],952 ± 190,–,–
MANITRMANHTGKLDFILMGLFRRSKHPALLSVVIFVVFLKALSGNAVLILLIHCDAHLHSPMYFFISQLSLMDMAYISVTVPKMLLDQVMGVNKVSAPECGMQMFLYLTLAGSEFFLLATMAYDRYVAICHPLRYPVLMNHRVCLFLASGCWFLGSVDGFMLTPITMSFPFCRSWEIHHFFCEVPAVTILSCSDTSLYETLMYLCCVLMLLIPVTIISSSYLLILLTVHRMNSAEGRKKAFATCSSHLTVVILFYGAAVYTYMLPSSYHTPEKDMMVSVFYTILTPVLNPLIYSLRNKDVMGALKKMLTVRFVL [OR2T5],–,121 ± 14,–
MANITRMANHTGRLDFILMGLFRQSKHPALLSVVIFVVFLKALSGNAVLILLIHCDAHLHSPMYFFISQLSLMDMAYISVTVPKMLLDQVMGVNKVSAPECGMQMFLYLTLAGSEFFLLATMAYDRYVAICHPLRYPVLMNHRVCLFLASGCWFLGSVDGFMLTPITMSFPFCRSWEIHHFFCEVPAVTILSCSDTSLYETLMYLCCVLMLLIPVTIISSSYLLILLTVHRMNSAEGRKKAFATCSSHLTVVILFYGAAVYTYMLPSSYHTPEKDMMVSVFYTILTPVLNPLIYSLRNKDVMGALKKMLTVRFVL [OR2T29],–,131 ± 21,–
MANSASPEQNQNHCSAINNSIPLMQGNLPTLTLSGKIRVTVTFFLFLLSATFNASFLLKLQKWTQKKEKGKKLSRMKLLLKHLTLANLLETLIVMPLDGMWNITVQWYAGELLCKVLSYLKLFSMYAPAFMMVVISLDRSLAITRPLALKSNSKVGQSMVGLAWILSSVFAGPQLYIFRMIHLADSSGQTKVFSQCVTHCSFSQWWHQAFYNFFTFSCLFIIPLFIMLICNAKIIFTLTRVLHQDPHELQLNQSKNNIPRARLKTLKMTVAFATSFTVCWTPYYVLGIWYWFDPEMLNRLSDPVNHFFFLFAFLNPCFDPLIYGYFSL [GNRHR],160 ± 34,–,–
MANVTLVTGFLLMGFSNIQKLRILYGVLFLLIYLAALMSNLLIITLITLDVKLQTPMYFFLKNLSFLDVFLVSVPIPKFIVNNLTHNNSISILGCAFQLLLMTSFSAGEIFILTAMSYDRYVAICCPLNYEVIMNTGVCVLMASVSWAIGGLFGTAYTAGTFSMPFCGSSVIPQFFCDVPSLLRISCSETLMVIYAGIGVGACLSISCFICIVISYIYIFSTVLKIPTTKGQSKAFSTCFPHLTVFTVFIITAYFVYLKPPSNSPSVIDRLLSVIYTVMPPVFNPVTYSLRNNDMKCALIRLLQKTYGQEAYFI [OR14A2],–,133 ± 42,–
MANYTLAPEDEYDVLIEGELESDEAEQCDKYDAQALSAQLVPSLCSAVFVIGVLDNLLVVLILVKYKGLKRVENIYLLNLAVSNLCFLLTLPFWAHAGGDPMCKILIGLYFVGLYSETFFNCLLTVQRYLVFLHKGNFFSARRRVPCGIITSVLAWVTAILATLPEFVVYKPQMEDQKYKCAFSRTPFLPADETFWKHFLTLKMNISVLVLPLFIFTFLYVQMRKTLRFREQRYSLFKLVFAIMVVFLLMWAPYNIAFFLSTFKEHFSLSDCKSSYNLDKSVHITKLIATTHCCINPLLYAFLDGTFSKYLCRCFHLRSNTPLQPRGQSAQGTSREEPDHSTEV [CCRL2],569 ± 46,–,–
MAQQWSLQRLAGRHPQDSYEDSTQSSIFTYTNSNSTRGPFEGPNYHIAPRWVYHLTSVWMIFVVIASVFTNGLVLAATMKFKKLRHPLNWILVNLAVADLAETVIASTISVVNQVYGYFVLGHPMCVLEGYTVSLCGITGLWSLAIISWERWMVVCKPFGNVRFDAKLAIVGIAFSWIWAAVWTAPPIFGWSRYWPHGLKTSCGPDVFSGSSYPGVQSYMIVLMVTCCITPLSIIVLCYLQVWLAIRAVAKQQKESESTQKAEKEVTRMVVVMVLAFCFCWGPYAFFACFAAANPGYPFHPLMAALPAFFAKSATIYNPVIYVFMNRQFRNCILQLFGKKVDDGSELSSASKTEVSSVSSVSPA [OPN1MW3],288 ± 18,–,–
MAQQWSLQRLAGRHPQDSYEDSTQSSIFTYTNSNSTRGPFEGPNYHIAPRWVYHLTSVWMIFVVTASVFTNGLVLAATMKFKKLRHPLNWILVNLAVADLAETVIASTISIVNQVSGYFVLGHPMCVLEGYTVSLCGITGLWSLAIISWERWMVVCKPFGNVRFDAKLAIVGIAFSWIWAAVWTAPPIFGWSRYWPHGLKTSCGPDVFSGSSYPGVQSYMIVLMVTCCIIPLAIIMLCYLQVWLAIRAVAKQQKESESTQKAEKEVTRMVVVMIFAYCVCWGPYTFFACFAAANPGYAFHPLMAALPAYFAKSATIYNPVIYVFMNRQFRNCILQLFGKKVDDGSELSSASKTEVSSVSSVSPA [OPN1LW],261 ± 14,–,–
MARENHSLAAEFILIGFTNYPELKTLLFVVFSAIYLVTMVGNLGLVALIYVERRLLTPMYIFLGNLALMDSCCSCAVTPKMLENFFSEDRIISLYECMAQFYFLCLAETTDCFLLATMAYDRYVAICHPLQYHTMMSKTLCIRMTTGAFKAGNLHSMIHVGLLLRLTFCRSNKIHHFFCDILPLYRLSCTDPSINELMIYIFSIPIQIFTIATVLISYLCILLTVFKMKSKEGRGKAFSTCASHFLSVSIFYICLLMYIGPSEEGDKDTPVAIFYAIVIPLLNPFIYSLRNKEVINVLKKIMRNYNILKQTCSIANLFLIY [OR5K4],–,254 ± 110,–
MARENSTFNSDFILLGIFNHSPTHTFLFFLVLAIFSVAFMGNSVMVLLIYLDTQLHTPMYLLLSQLSLMDLMLICTTVPKMAFNYLSGSKSISMAGCATQIFFYTSLLGSECFLLAVMAYDRYTAICHPLRYTNLMSPKICGLMTAFSWILGSTDGIIDVVATFSFSYCGSREIAHFFCDFPSLLILSCSDTSIFEKILFICCIVMIVFPVAIIIASYARVILAVIHMGSGEGRRKAFTTCSSHLLVVGMYYGAALFMYIRPTSDRSPTQDKMVSVFYTILTPMLNPLIYSLRNKEVTRAFMKILGKGKSGE [OR2M3],–,138 ± 19,–
MARPDPSAPPSLLLLLLAQLVGRAAAASKAPVCQEITVPMCRGIGYNLTHMPNQFNHDTQDEAGLEVHQFWPLVEIQCSPDLRFFLCSMYTPICLPDYHKPLPPCRSVCERAKAGCSPLMRQYGFAWPERMSCDRLPVLGRDAEVLCMDYNRSEATTAPPRPFPAKPTLPGPPGAPASGGECPAGGPFVCKCREPFVPILKESHPLYNKVRTGQVPNCAVPCYQPSFSADERTFATFWIGLWSVLCFISTSTTVATFLIDMERFRYPERPIIFLSACYLCVSLGFLVRLVVGHASVACSREHNHIHYETTGPALCTIVFLLVYFFGMASSIWWVILSLTWFLAAGMKWGNEAIAGYAQYFHLAAWLIPSVKSITALALSSVDGDPVAGICYVGNQNLNSLRGFVLGPLVLYLLVGTLFLLAGFVSLFRIRSVIKQGGTKTDKLEKLMIRIGIFTLLYTVPASIVVACYLYEQHYRESWEAALTCACPGHDTGQPRAKPEYWVLMLKYFMCLVVGITSGVWIWSGKTVESWRRFTSRCCCRPRRGHKSGGAMAAGDYPEASAALTGRTGPPGPAATYHKQVSLSHV [FZD5],–,–,plasma membrane surface immunostaining intensity (GPCR class: F): 4020 ± 200
MASFSAETNSTDLLSQPWNEPPVILSMVILSLTFLLGLPGNGLVLWVAGLKMQRTVNTIWFLHLTLADLLCCLSLPFSLAHLALQGQWPYGRFLCKLIPSIIVLNMFASVFLLTAISLDRCLVVFKPIWCQNHRNVGMACSICGCIWVVAFVMCIPVFVYREIFTTDNHNRCGYKFGLSSSLDYPDFYGDPLENRSLENIVQPPGEMNDRLDPSSFQTNDHPWTVPTVFQPQTFQRPSADSLPRGSARLTSQNLYSNVFKPADVVSPKIPSGFPIEDHETSPLDNSDAFLSTHLKLFPSASSNSFYESELPQGFQDYYNLGQFTDDDQVPTPLVAITITRLVVGFLLPSVIMIACYSFIVFRMQRGRFAKSQSKTFRVAVVVVAVFLVCWTPYHIFGVLSLLTDPETPLGKTLMSWDHVCIALASANSCFNPFLYALLGKDFRKKARQSIQGILEAAFSEELTRSTHCPSNNVISERNSTTV [C3AR1],327 ± 41,–,–
MASLSQLSGHLNYTCGAENSTGASQARPHAYYALSYCALILAIVFGNGLVCMAVLKERALQTTTNYLVVSLAVADLLVATLVMPWVVYLEVTGGVWNFSRICCDVFVTLDVMMCTASILNLCAISIDRYTAVVMPVHYQHGTGQSSCRRVALMITAVWVLAFAVSCPLLFGFNTTGDPTVCSISNPDFVIYSSVVSFYLPFGVTVLVYARIYVVLKQRRRKRILTRQNSQCNSVRPGFPQQTLSPDPAHLELKRYYSICQDTALGGPGFQERGGELKREEKTRNSLSPTIAPKLSLEVRKLSNGRLSTSLKLGPLQPRGVPLREKKATQMVAIVLGAFIVCWLPFFLTHVLNTHCQTCHVSPELYSATTWLGYVNSALNPVIYTTFNIEFRKAFLKILSC [DRD3],3810 ± 240,–,–
MASPALAAALAVAAAAGPNASGAGERGSGGVANASGASWGPPRGQYSAGAVAGLAAVVGFLIVFTVVGNVLVVIAVLTSRALRAPQNLFLVSLASADILVATLVMPFSLANELMAYWYFGQVWCGVYLALDVLFCTSSIVHLCAISLDRYWSVTQAVEYNLKRTPRRVKATIVAVWLISAVISFPPLVSLYRQPDGAAYPQCGLNDETWYILSSCIGSFFAPCLIMGLVYARIYRVAKLRTRTLSEKRAPVGPDGASPTTENGLGAAAGAGENGHCAPPPADVEPDESSAAAERRRRRGALRRGGRRRAGAEGGAGGADGQGAGPGAAESGALTASRSPGPGGRLSRASSRSVEFFLSRRRRARSSVCRRKVAQAREKRFTFVLAVVMGVFVLCWFPFFFSYSLYGICREACQVPGPLFKFFFWIGYCNSSLNPVIYTVFNQDFRRSFKHILFRRRRRGFRQ [ADRA2C],1030 ± 270,–,–
